The test system of data set [1] is striatonigral projection neurons (striatal MSNs). The data set can be described thus: Retrograde labeling of striatal MSNs after AAV injection into the SNr (EYFP+ cell counting). Type of data set: in vivo, mice. The conditions noted are these: for labeled striatonigral projection neurons (FIG. 2C): wild type mice, n=3, mean±SEM. The source says:
(§1) Brain profiles of two epigenetic marks for enhancers and promoters, monomethylation of histone H3 lysine 4 (H3K4me1) and acetylation of histone H3 lysine 27 (H3K27ac) were checked and approximately 2 kilobase-long sequences around the transcriptional start site (TSS) that have high levels of H3K4me1 and/or H3K27ac were identified in mouse brain. Homologous sequences at equivalent positions of the human genome were then cloned onto an AAV backbone, and the activity of the homologous sequences in directing reporter expression was tested in mice after injections of AAVs into the SNr (FIG. 3A-C, TABLE 3).
(§2) Mice were anesthetized with sodium pentobarbital (Nembutal; 80 mg/kg, i.p.), and then placed into a stereotaxic device (KOPF). Eye cream was applied on both corneas to avoid dehydration. The skull above the targeted areas was thinned with a dental drill and carefully removed. Injections were conducted with a 10 μL syringe connected to a 33-Gauge needle (Neuros; Hamilton), using a microsyringe pump (Legato 130, KD Scientific). A total volume of 200 nL virus was injected into the SNr at a speed of 20 nL/min. The coordinates for the SNr were 3.4 mm posterior, 1.3 mm lateral, 4.8 mm ventral to the bregma.
(§3) Images were acquired using a confocal microscope (Carl Zeiss, LSM880) and an Axiolmager.Z1 microscope with apotome (Carl Zeiss). Brain structures were identified microscopically and in digital photos using a mouse brain atlas. To analyze the number of EYFP+ cells in the striatum, slices from rostral to caudal striatum were used. Every sixth section was analyzed, and numbers of EYFP+ cells were multiplied by six to acquire the approximate total number and mean number of cells per animal. Images were processed using ImageJ (NIH, USA), and final quantifications were independently performed manually by two blinded experimenters.

In data set [2] the test system is MSNs in nucleus accumbens. The data set can be described thus: Retrograde labeling of accumbal MSNs after delivery into ventral pallidum or lateral hypothalamus. Type of data set: in vivo, mouse. To be noted: stereotaxic delivery into ventral pallidum or lateral hypothalamus.
The test system of a further data set is substantia nigra. The data set can be described thus: Promoter activity level in substantia nigra after AAV injection into the SNr. It counts as in vivo, mice. The conditions noted are these: numbers of YFP-expressing neurons per animal.
Source text: as §1, §2, §3

B1: AAV8R12: AAV8R capsid mutant V183E + N411S (SEQ ID NO: 13; SEQ ID NO: 59) (protein)
chain: MAADGYLPDWLEDNLSEGIREWWALKPGAPKPKANQQKQDDGRGLVLPGYKYLGPFNGLDKGEPVNAADAAALEHDKAYDQQLQAGDNPYLRYNHADAEFQERLQEDTSFGGNLGRAVFQAKKRVLEPLGLVEEGAKTAPGKKRPVEPSPQRSPDSSTGIGKKGQQPARKRLNFGQTGDSESEPDPQPLGEPPAAPSGVGPNTMAAGGGAPMADNNEGADGVGSSSGNWHCDSTWLGDRVITTSTRTWALPTYNNHLYKQISNGTSGGATNDNTYFGYSTPWGYFDFNRFHCHFSPRDWQRLINNNWGFRPKRLSFKLFNIQVKEVTQNEGTKTIANNLTSTIQVFTDSEYQLPYVLGSAHQGCLPPFPADVFMIPQYGYLTLNDGSQAVGRSSFYCLEYFPSQMLRTGNSFQFTYTFEDVPFHSSYAHSQSLDRLMNPLIDQYLYYLSRTQTTGGTANTQTLGFSQGGPNTMANQAKNWLPGPCYRQQRVSTTTGQNNNSNFAWTAGTKYHLNGRNSLANPGIAMATHKDDEERFFPSNGILIFGKQNAARDNADYSDVMLTSEEEIKTTNPVATEEYGIVADNLQRGNLADQDYTKTARQAATADVNSQGALPGMVWQNRDVYLQGPIWAKIPHTDGNFHPSPLMGGFGLKHPPPQILIKNTPVPADPPTTFNQSKLNSFITQYSTGQVSVEIEWELQKENSKRWNPEIQYTSNYYKSINVDFAVNTEGVYSEPRPIGTRYLTRN
On to B1, for which, in data set [1] (AAV8R capsid mutants, numbers of labeled neurons per animal), the “Labeling Efficiency in Striatonigral Pathway” value is listed as “+++ (10k-25k)”. Further, in data set [1] (SNr injection), the “labeled striatonigral projection neurons (FIG. 2C)” value is 16026±1654. In data set [1] (after nigral delivery, hSyn-EYFP), the “times EYFP positive / labeled MSNs compared to rAAV2-retro” value came to 7.72±0.78 times. In addition, the “labeling of MSNs in nucleus accumbens” value in data set [2] is “robust labeling”.

B2: G88P7: 896-bp shortened derivative of G88P2 promoter (SEQ ID NO: 46) (nucleic acid, listed as Homo sapiens)
DNA: ATGCCAAGCGTGGAAAGGCTGTCTTTTCCCTGGATGATGTATAACTAAGCAGGAGAGAGCTTCGAGTGGGTTCACCACATCAGCCACCACTCCTGCTTCTGAGCACAGGGTGCTCTCCTCTTGAGCTCAGCTTCTGCTTTTGCAGCCAAGCATTCTTGCTGCTGCTGCCTGCCTGCCCACCCGCCTGGGCTTGCAGCCCGCCACTTTACTTTCTCCAGCCCTGATACCAGCTGAGAAGTCTCCCTGCAGCTGCTAGTTCCTGCCCAGGACCATGTGTGTGGATGCTGCTTGGGAGAAGCGGGCACTTGCTCCTGGCACTGATCCCAGCTGAGTTTCTCCTGTTGATTTCTGGACCACTGATGCTGTTGCTGAGGAGGTATTTCCCGGCATCCCTCCCCCTGAGACACCGGCTAAGGACCAGCCTAAACGCAAGGTAACCTTCACCTCTTTCCCATGGGATTTTCCCCAGCTGGGATATCTCTGCTTTCTCCTGGAACTAGGTCCTCCAGCTGGCAACATATCTCTCTCTCTCTCTCTCTCTCTCTCTCTCTCTCTCTCTCTGTGTGTGTGTGTGTGTGTTGGGGGAGAAGAGGAGACTGTTTTAGGTATTGCTCTGTCCTAGGGCTTCCCCGATACCTGCTGAATCCAATGCAAAGTGGCCTTTCCCCTGGCTCTGGAGACATTTCCGAGGCAGGCACCTGTCATCTGCCACCCCCGTCCTCCTCCTCGAGCTCCCTTTCTCCCCCTCCCCCAGCCCATTATTCTGCTTCAGCCTTTTGTGTCAGTGGCAGAGGGCTGAAGGGATGTCTTTGCCCTTCTGGCAGGCAGGACAGTGTCAGGATGGACCGCGCTGCCAGAAGCCGACGCTAGCGAGGGAGGTGTGAAGAGTTGGCCAG
Take B2: the “Activity Level SN” value in the data set on substantia nigra is given as “+ (<5k)”. The “reporter-labeled MSNs by promoter (FIG. 4B)” value in data set [1] (SNr injection, n=3 mice, mean±SEM) was found to be 39460±7281. Moreover, the “Activity Level STR” value in data set [1] (striatum, numbers of YFP-expressing neurons per animal) is on record as “++++ (>25k)”. In addition, in data set [1] (viruses expressing EYFP, injection into the SNr (FIG. 4B)), the “labeled MSNs per mouse” value was 3.95±0.73 ×104 MSNs per mouse.

B3: AAV8R: AAV8 capsid with N385D, insertion of SEQ ID NO: 31 at position 588 and TS to IN mutation (SEQ ID NO: 1) (protein)
chain: MAADGYLPDWLEDNLSEGIREWWALKPGAPKPKANQQKQDDGRGLVLPGYKYLGPFNGLDKGEPVNAADAAALEHDKAYDQQLQAGDNPYLRYNHADAEFQERLQEDTSFGGNLGRAVFQAKKRVLEPLGLVEEGAKTAPGKKRPVEPSPQRSPDSSTGIGKKGQQPARKRLNFGQTGDSESVPDPQPLGEPPAAPSGVGPNTMAAGGGAPMADNNEGADGVGSSSGNWHCDSTWLGDRVITTSTRTWALPTYNNHLYKQISNGTSGGATNDNTYFGYSTPWGYFDFNRFHCHFSPRDWQRLINNNWGFRPKRLSFKLFNIQVKEVTQNEGTKTIANNLTSTIQVFTDSEYQLPYVLGSAHQGCLPPFPADVFMIPQYGYLTLNDGSQAVGRSSFYCLEYFPSQMLRTGNNFQFTYTFEDVPFHSSYAHSQSLDRLMNPLIDQYLYYLSRTQTTGGTANTQTLGFSQGGPNTMANQAKNWLPGPCYRQQRVSTTTGQNNNSNFAWTAGTKYHLNGRNSLANPGIAMATHKDDEERFFPSNGILIFGKQNAARDNADYSDVMLTSEEEIKTTNPVATEEYGIVADNLQRGNLADQDYTKTARQAATADVNSQGALPGMVWQNRDVYLQGPIWAKIPHTDGNFHPSPLMGGFGLKHPPPQILIKNTPVPADPPTTFNQSKLNSFITQYSTGQVSVEIEWELQKENSKRWNPEIQYTSNYYKSINVDFAVNTEGVYSEPRPIGTRYLTRNL
B3: the “labeled striatonigral projection neurons (FIG. 2C)” value in data set [1] (SNr injection) came out at 10092±463.9. The “labeling of MSNs in nucleus accumbens” value in data set [2] is “robust labeling”.

These data come from patent US20250381307A1, “RETRO-AAV AND USE IN TREATING NEURODEGENERATIVE DISEASES” (priority 2023, published 2025).
